Reference: patent publication US20140295512A1, “Ketol-Acid Reductoisomerases With Improved Performance Properties” (CALIFORNIA INSTITUTE OF TECHNOLOGY, priority 2011, published 2014)

Assays:
Format in all cases: biochemical
[1] = KARI enzyme assay on cell lysates with NADH and NADPH as cofactors
Experimental: In this example, different KARI enzymes (Table 7) were screened for their activity with NADH and NADPH as cofactor. The enzymes were expressed in an S. cerevisiae strain by means of 2 micron plasmids carrying the KARI genes under the control of the S. cerevisiae TDH3 promoter. The transformants were cultivated in shake flask fermentations as described below and samples were taken after 44 h, centrifuged at 4000×g for 10 mins at 4° C. and the cell pellets were stored at −80° C. until analysis. The pellets were lysed by bead beating and the lysates were analyzed by KARI activity assay as described below using NADH and NADPH as cofactors.
Patched cells (or single colonies) grown on YPD+G418 plates at 30° C. were mixed into 3 mL YP+12% dextrose+200 mM MES, pH 6.5+G418, in 14 mL culture tubes and incubated at 250 RPM, 30° C. for ˜24 hours. The cells from the cultures were used to inoculate YP+12% dextrose+200 mM MES, pH 6.5+G418, in non-baffled flasks with a vented grey screw-caps at OD600 0.01. The cultures were incubated at 250 RPM, 30° C. for 24 hours, diluted 1:3 and incubated for another 20 h at 250 RPM, 30° C. Samples for enzyme assay pellets and protein quantification pellets were taken from each shake flask, and cell-free supernatant was used to measure glucose levels in shake flasks.
The assay and no substrate control reactions were performed in triplicate for each sample. The following stock solutions were prepared: 1 M potassium phosphate, pH 7, 0.1 M MgCl2, 100 mM DTT, 25 mM NADH or NADPH, 200 mM 2-acetolactate. The 2-acetolactate was made fresh each time by mixing 50 μL Ethyl-2-acetoxy-2-methylacetoacetate (EAMAA) with 990 μL water. Gradually 260 μL of 2 N NaOH was added in 10 μL increments to the EAMAA water mixture. After each addition the sample was vortexed for 15 seconds, and the procedure repeated until the entire 260 μL of 2 N NaOH was added. Afterwards the solution was mixed on an orbital shaker for 20 min (Krampitz, 1957). KARI reaction buffer (100 μL per reaction) was prepared to the following concentrations: 250 mM potassium phosphate, pH 7, 10 mM MgCl2, 1 mM DTT, 0.2 mM NADH or NADPH, 10 mM 2-acetolactate. For the no substrate controls, the 2-acetolactate was substituted with water. 10 μL of each lysate were transferred into a 96 well half area assay plate. The reaction was started with 90 μL of reaction buffer to each well using a multichannel pipette. The samples were mixed immediately. The samples were read at 340 nm every 10 s for 5 min.

[2] = KARI assay of purified S. exigua KARI and variants with NADH (Examples 6-9); settings: for U/mg NADH (specific activity): cofactor NADH; for Km: read-out: Km for cofactor NADH; for Ratio NADH/NADPH (U/mg): specific activity ratio
Experimental: (§1) S. exigua KARI activity or activities of its variants were assayed kinetically by monitoring the decrease in NADPH or NADH concentration by measuring the change in absorbance at 340 nm. An assay buffer was prepared containing 100 mM potassium phosphate pH 7.0, 1 mM DTT, 2.5 mM (S)-2-acetolactate, and 10 mM MgCl2 (final concentrations in the 1-mL assay, accounting for dilution with enzyme and cofactor). Fifty μL purified enzyme and 930 μL of the assay buffer were placed into a 1-mL cuvette. The reaction was initiated by addition of 20 μL NADPH or NADH (200 μM final concentration) for a general activity assay. Michaelis-Menten constants of the cofactors were determined with varying concentrations of NADPH (200-12 μM final) or NADH (200-6 μM final).

[3] = KARI assay of purified S. exigua KARI and variants with NADPH (Examples 6-9); settings: for U/mg NADPH (specific activity): cofactor NADPH; for Km: read-out: Km for cofactor NADPH
Experimental: as §1

[4] = High-throughput screening of KARI variant libraries in E. coli lysates
Experimental: For growth and expression of KARI variants in deep well plates, sterile toothpicks were used to pick single colonies into shallow 96-well plates filled with 300 μL LBamp. Fifty μL of these overnight cultures were used to inoculate deep well plates filled with 600 μL of LBamp per well. The plates were grown at 37° C. with shaking at 250 rpm for 3 h. One hour before induction with IPTG (final concentration 0.5 mM), the temperature of the incubator was reduced to 25° C. After induction, growth and expression continued for 20 h at 25° C. and 250 rpm. Cells were harvested at 5,300 g and 4° C. and then stored at −20=C. The plates always contained four wild-type or parent S. exigua KARI colonies, three BL21(DE3) colonies carrying pET22b(+) to control for background reactions in cell lysates, and one well that contained only media to make sure the plates were free of contaminations.
Frozen cell pellets were thawed at room temperature for 20 min and then 200 μL of lysis buffer (100 mM Kpi, 750 mg/L lysozyme, 10 mg/L DNaseI, pH 7) were added. Plates were vortexed to resuspend the cell pellets. After a 60 min incubation phase at 37° C. and shaking at 130 rpm, plates were centrifuged at 5,300 g and 4° C. for 10 min. […] The depletion of NAD(P)H was monitored at 340 nm in a plate reader (TECAN) over 200 s.

Molecule | Specific Activity with NADH/Specific Activity with NADPH [1] | NADH-Dependent Specific Activity ([1]; empty vector control subtracted) [U/mg lysate] | kcat NADH [2] [s⁻¹] | kcat/Km ratio NADH/NADPH (cofactor specificity) [2] | U/mg NADH (specific activity) [2] [U/mg] | Km [2] [µM] | Ratio NADH/NADPH (U/mg) [2] | Ratio NADH/NADPH (U/mg) ([2]; listed as 4E10) | kcat NADPH [3] [s⁻¹] | U/mg NADPH (specific activity) [3] [U/mg] | Km [3] [µM] | NADH/NADPH activity ratio in the screen/rescreen relative to parent [4]
Zm: Zymomonas mobilis KARI homolog (protein, UniProt Q9X5F8 1-339, looked up) Ketol-acid reductoisomerase …: MKVYYDSDADLGLIKSKKIAILGYGSQGHAHAQNLRDSGVAEVAIALRPDSASVKKAQDAGFKVLTNAEAAKWADILMILAPDEHQAAIYAEDLKDNLRPGSAIAFAHGLNIHFGLIEPRKDIDVFMIAPKGPGHTVRSEYVRGGGVPCLVAVDQDASGNAHDIALAYASGIGGGRSGVIETTFREEVETDLFGEQAVLCGGLTALITAGFETLTEAGYAPEMAFFECMHEMKLIVDLIYEAGIANMRYSISNTAEYGDIVSGPRVINEESKKAMKAILDDIQSGRFVSKFVLDNRAGQPELKAARKRMAAHPIEQVGARLRKMMPWIASNKLVDKARN | 0.074 | 0.002 | – | – | – | – | – | – | – | – | – | –
Se1_KARI^4E10: S. exigua KARI variant L57V, R58P, S61C (protein, UniProt D0WGK0 1-342, looked up, variant L57V R58P S61C) Ketol-acid reductoisomerase …: MSVKTKEKEMAVTILYEQDVDPKVIQGLKVGIIGYGSQGHAHALNLMDSGVDVRVGVPEGCSSWKTAEEAGLKVTDMDTAAEEADVIMVLVPDEIQPKVYQEHIAAHLKAGNTLAFAHGFNIHYGYIVPPEDVNVIMCAPKGPGHIVRRQFTEGSGVPDLACVQQDATGNAWDIVLSYCWGVGGARSGIIKATFAEETEEDLFGEQAVLCGGLVELVKAGFETLTEAGYPPELAYFECYHEMKMIVDLMYESGIHFMNYSISNTAEYGEYYAGPKVINEQSREAMKEILKRIQDGSFAQEFVDDCNNGHKRLLEQREAINTHPIETTGAQIRSMFSWIKKED | – | – | 0.90 | 0.1 | 0.36 | 49 | 1.0 | 1 | 0.90 | 0.36 | 4 | more than doubled
Se1_KARI^14B7: S. exigua KARI variant Y35H, S63D, I95V (protein, UniProt D0WGK0 1-342, looked up, variant Y35H S63D I95V) Ketol-acid reductoisomerase …: MSVKTKEKEMAVTILYEQDVDPKVIQGLKVGIIGHGSQGHAHALNLMDSGVDVRVGLREGSSDWKTAEEAGLKVTDMDTAAEEADVIMVLVPDEVQPKVYQEHIAAHLKAGNTLAFAHGFNIHYGYIVPPEDVNVIMCAPKGPGHIVRRQFTEGSGVPDLACVQQDATGNAWDIVLSYCWGVGGARSGIIKATFAEETEEDLFGEQAVLCGGLVELVKAGFETLTEAGYPPELAYFECYHEMKMIVDLMYESGIHFMNYSISNTAEYGEYYAGPKVINEQSREAMKEILKRIQDGSFAQEFVDDCNNGHKRLLEQREAINTHPIETTGAQIRSMFSWIKKED | – | – | 0.45 | – | 0.18 | – | 0.32 | – | 1.4 | 0.56 | – | –
Se1_KARI^AC1: S. exigua KARI variant S63D, I95A (protein, UniProt D0WGK0 1-342, looked up, variant S63D I95A) Ketol-acid reductoisomerase …: MSVKTKEKEMAVTILYEQDVDPKVIQGLKVGIIGYGSQGHAHALNLMDSGVDVRVGLREGSSDWKTAEEAGLKVTDMDTAAEEADVIMVLVPDEAQPKVYQEHIAAHLKAGNTLAFAHGFNIHYGYIVPPEDVNVIMCAPKGPGHIVRRQFTEGSGVPDLACVQQDATGNAWDIVLSYCWGVGGARSGIIKATFAEETEEDLFGEQAVLCGGLVELVKAGFETLTEAGYPPELAYFECYHEMKMIVDLMYESGIHFMNYSISNTAEYGEYYAGPKVINEQSREAMKEILKRIQDGSFAQEFVDDCNNGHKRLLEQREAINTHPIETTGAQIRSMFSWIKKED | – | – | 0.5 | 0.3 | 0.2 | 68 | 0.5 | – | 1 | 0.4 | 45 | –
Se1_KARI^1H1: S. exigua KARI variant R58P, S61C (protein, UniProt D0WGK0 1-342, looked up, variant R58P S61C) Ketol-acid reductoisomerase …: MSVKTKEKEMAVTILYEQDVDPKVIQGLKVGIIGYGSQGHAHALNLMDSGVDVRVGLPEGCSSWKTAEEAGLKVTDMDTAAEEADVIMVLVPDEIQPKVYQEHIAAHLKAGNTLAFAHGFNIHYGYIVPPEDVNVIMCAPKGPGHIVRRQFTEGSGVPDLACVQQDATGNAWDIVLSYCWGVGGARSGIIKATFAEETEEDLFGEQAVLCGGLVELVKAGFETLTEAGYPPELAYFECYHEMKMIVDLMYESGIHFMNYSISNTAEYGEYYAGPKVINEQSREAMKEILKRIQDGSFAQEFVDDCNNGHKRLLEQREAINTHPIETTGAQIRSMFSWIKKED | – | – | 0.50 | – | 0.20 | – | 0.8 | – | 0.65 | 0.26 | – | –
Se1_KARI^2C6: S. exigua KARI variant L57V, R58P (protein, UniProt D0WGK0 1-342, looked up, variant L57V R58P) Ketol-acid reductoisomerase …: MSVKTKEKEMAVTILYEQDVDPKVIQGLKVGIIGYGSQGHAHALNLMDSGVDVRVGVPEGSSSWKTAEEAGLKVTDMDTAAEEADVIMVLVPDEIQPKVYQEHIAAHLKAGNTLAFAHGFNIHYGYIVPPEDVNVIMCAPKGPGHIVRRQFTEGSGVPDLACVQQDATGNAWDIVLSYCWGVGGARSGIIKATFAEETEEDLFGEQAVLCGGLVELVKAGFETLTEAGYPPELAYFECYHEMKMIVDLMYESGIHFMNYSISNTAEYGEYYAGPKVINEQSREAMKEILKRIQDGSFAQEFVDDCNNGHKRLLEQREAINTHPIETTGAQIRSMFSWIKKED | – | – | 0.55 | – | 0.22 | – | 0.7 | – | 0.80 | 0.33 | – | –
Se1_NKR^Gen6-his6: S. exigua KARI variant S61D, S63D, I95V (protein, UniProt D0WGK0 1-342, looked up, variant S61D S63D I95V, His6 tag, S. exigua KARI variant S61D, S63D, I95V) Ketol-acid reductoisomerase …: MSVKTKEKEMAVTILYEQDVDPKVIQGLKVGIIGYGSQGHAHALNLMDSGVDVRVGLREGDSDWKTAEEAGLKVTDMDTAAEEADVIMVLVPDEVQPKVYQEHIAAHLKAGNTLAFAHGFNIHYGYIVPPEDVNVIMCAPKGPGHIVRRQFTEGSGVPDLACVQQDATGNAWDIVLSYCWGVGGARSGIIKATFAEETEEDLFGEQAVLCGGLVELVKAGFETLTEAGYPPELAYFECYHEMKMIVDLMYESGIHFMNYSISNTAEYGEYYAGPKVINEQSREAMKEILKRIQDGSFAQEFVDDCNNGHKRLLEQREAINTHPIETTGAQIRSMFSWIKKED | – | – | 1 ± 0.01 | 87 | 0.4 ± 0.01 | 47 ± 15 | 5.7 | – | 0.18 ± 0.00 | 0.07 ± 0.0 | > 1000 | –
